Test results from patent US20230295751, “Biological Detection Sensor Chip and COVID-19 Test Kit” (published 2023).

B1: Capturing aptamer against SARS-CoV-2 SRBD (ssDNA)
DNA: CAGCACCGACCTTGTGCTTTGGGAGTGCTGGTCCAAGGGCGTTAATGGACA
modifications: 5'-NH2 with 12C spacer

Key:
[1] = tested on: Negative control virus without spike protein; assay: SPR; conditions: 5'-NH2 with 12C spacer
[2] = molecular target: Bovine serum albumin (BSA) (Bos taurus, UniProt P02769 P02769:25-607); assay: SPR
Chain of Bovine serum albumin (BSA) (P02769 25-607, one chain of several): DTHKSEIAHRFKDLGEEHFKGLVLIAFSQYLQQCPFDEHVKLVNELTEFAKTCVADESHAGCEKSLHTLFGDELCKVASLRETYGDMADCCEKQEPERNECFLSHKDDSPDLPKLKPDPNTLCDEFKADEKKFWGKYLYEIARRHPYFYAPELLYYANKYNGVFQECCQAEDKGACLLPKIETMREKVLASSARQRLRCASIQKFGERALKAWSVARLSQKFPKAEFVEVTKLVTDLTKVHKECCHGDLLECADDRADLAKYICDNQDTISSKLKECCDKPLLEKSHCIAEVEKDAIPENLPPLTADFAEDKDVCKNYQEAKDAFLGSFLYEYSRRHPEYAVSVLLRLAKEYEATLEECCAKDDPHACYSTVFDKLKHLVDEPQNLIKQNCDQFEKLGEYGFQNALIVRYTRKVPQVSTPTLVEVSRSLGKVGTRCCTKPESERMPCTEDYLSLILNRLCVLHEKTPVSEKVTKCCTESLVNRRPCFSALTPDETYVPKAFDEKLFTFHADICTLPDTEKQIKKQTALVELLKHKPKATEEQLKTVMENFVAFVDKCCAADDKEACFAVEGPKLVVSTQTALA

| Molecule | binding [1] [RU] | binding result [2] |
| --- | --- | --- |
| CAGCACCGACCTTGTGCTTTGGGAGTGCTGGTCCAAGGGCGTTAATGGACA [Capturing aptamer against SARS-CoV-2 SRBD] | 23 |  |
| B1 |  | no binding |
